1 substance from article doi:10.1101/456046 can be followed below.

The target in the experiment is Photosystem II subunit S (PsbS) from Physcomitrella patens (Physcomitrella patens). Description: SDS-PAGE.

Substance “Photosystem II subunit S (PsbS) from Physcomitrella patens (natural protein)” showed a stoichiometry N of 2.
